# Measurements: patent US20120184016A1, “NOVEL PROTEIN AND GENE THAT CODES THEREFOR” (priority 2009, published 2012)
# B1: SHIZ119-N1C0 (protein)
# chain: MCNDNQNTVDVVVSTVNDNVIENNTYQVKPIDTPTTFDSYSWIQTCGTPILKDDEKYSLSFDFVAPELDQDEKFCFEFTGDVDGKRYVTQTNLTVVAPTLEVYVDHASLPSLQQLMKIIQQKNEYSQNERFISWGRIGLTEDNAEKLNAHIYPLAGNNTSQELVDAVIDYADSKNRLNLELNTNTAHSFPNLAPILRIISSKSNILISNINLYDDGSAEYVNLYNWKDTEDKSVKLSDSFLVLKDYFNGISSEKPSGIYGRYNWHQLYNTSYYFLRKDYLTVEPQLHDLREYLGGSLKQMSWDGFSQLSKGDKELFLNIVGFDQEKLQQEYQQSELPNFVFTGTTTWAGGETKEYYAQQQVNVVNNAINETSPYYLGREHDLFFKGHPRGGIINDIILGSFNNMIDIPAKVSFEVLMMTGMLPDTVGGIASSLYFSIPAEKVSFIVFTSSDTITDREDALKSPLVQVMMTLGIVKEKDVLFWSDLPDCSSGVCIAQY
# modifications: beta-galacoside-alpha-2,6-sialyltransferase from phorobacterium leiognathi (without signal peptide)
# Assays:
# Assay type in all cases: biochemical
# [1] = Enzyme activity of the sample after each purification step
# Excerpt: The sialyltransferase activity may be measured by a known method, for example, the process described in J. Biochem., 120, 104-110 (1996) (which is hereby incorporated by reference in its entirety). For example, the enzyme activity can be evaluated by performing an enzyme reaction using CMP-NeuAc (N-acetylneuraminic acid) as a sugar donor substrate and lactose as a sugar acceptor substrate and evaluating the amount of the reaction product, i.e., sialyllactose. Note that one enzyme unit (1 U) of sialyltransferase is defined as the amount of the enzyme required to transfer one micromole of sialic acid per minute.
# Sialyltransferase activity was measured by a method described in J. Biochem., 120, 104-110 (1996) (which is hereby incorporated by reference in its entirety). Specifically, the enzyme reaction was performed using a reaction solution (30 μL) containing CMP-NeuAc (70 nmol, containing about 20000 cpm CMP-NeuAc in which NeuAc was labeled with ^14C; NeuAc represents N-acetylneuraminic acid) as a sugar donor substrate, lactose (1.25 μmol) as a sugar acceptor substrate, NaCl added to give a concentration of 0.5 M, and the enzyme prepared as described above. The enzyme reaction was carried out at 25° C. for about 10 to 180 minutes. After completion of the reaction, 1.97 mL of 5 mM phosphate buffer (pH 6.8) was added to the reaction solution, which was then applied to a Dowex 1×8 (PO4^3− form, 0.2×2 cm, manufactured by Bio-Rad Laboratories, Inc.) column. The radioactivity contained in the reaction product contained in the eluate (0 to 2 mL) from this column, that is, sialyllactose, was measured to calculate the enzyme activity. One enzyme unit (1 U) is defined as the amount of enzyme required to transfer one micromole of sialic acid per minute.
# The enzyme activity was measured by the method described in J. Biochem., 120, 104-110 (1996), as in Example 1. The amount of the protein was measured using a Coomassie Protein Assay Reagent (manufactured by Pierce) in accordance with the instruction manual attached thereto. One enzyme unit (1 U) was defined as the amount of enzyme required to transfer one micromole of sialic acid per minute.
# [2] = Confirmation of β-galactoside-α2,6-sialyltransferase activity with pyridylaminated lactose, HPLC; conditions: enzyme expressed by E. coli transformed with SHIZ119-N1C0/pTrc99A
# Procedure: The linkage mode of sialic acid transferred to the sugar acceptor substrate can be determined by, but is not limited to, any procedure known to those skilled in the art, for example, a method using a pyridylaminated sugar chain or nuclear magnetic resonance spectroscopy (NMR) of the reaction product. The method using a pyridylaminated sugar chain involves an enzyme reaction using the pyridylaminated sugar chain as the sugar acceptor substrate. More specifically, an enzyme reaction is performed using pyridylaminated lactose (Galβ1-4Glc-PA, manufactured by Takara Bio Inc.) as a sugar acceptor substrate and CMP-NeuAc as a sugar donor substrate, and the reaction product is analyzed by high performance liquid chromatography (HPLC). From the retention time of the reaction product, the position at which sialic acid was transferred is determined.
# Then, to determine the linkage mode of sialic acid, a reaction using PA-lactose as a substrate was performed. The enzyme reaction was performed using the resulting crude enzyme solution and a pyridylaminated sugar chain as the sugar acceptor substrate. As the pyridylaminated sugar chain, pyridylaminated lactose (Galβ1-4Glc-PA, manufactured by Takara Bio Inc.) was used. […] The analysis was performed under the following conditions: flow rate: 1 mL/min, column temperature: 40° C., detection: fluorescence (Ex: 320 nm, Em: 400 nm). […]
# [3] = Confirmation of neuraminidase activity (long reaction, HPLC); conditions: purified enzyme; PA-6′-sialyllactose signal decreased, PA-lactose signal increased with reaction time; FIG. 3-1
# Procedure: In the process described in Example 2(6), the reaction using the purified enzyme solution of the JT-SHIZ-119-derived recombinant β-galactoside-α2,6-sialyltransferase prepared in Example 3 was performed for a long time. The signal of the reaction product (PA-6′-sialyllactose, retention time: 4.02 min) decreased and the signal of the PA-lactose (retention time: 3.73 min), which was the original sugar acceptor substrate, increased in accordance with an increase in reaction time (FIG. 3-1).
# [4] = Optimum pH and optimum temperature for neuraminidase activity; conditions: purified enzyme
# Procedure: The optimum pH and the optimum temperature for neuraminidase activity of the recombinant β-galactoside-α2,6-sialyltransferase SHIZ119-N1C0 derived from the JT-SHIZ-119 strain were investigated using the purified enzyme prepared in Example 3.
# The enzyme activity at various pH levels was measured at 35° C. with the buffer used in Example 4.
# The neuraminidase activity was measured at every increment of 5° C. starting from 5° C. up to 50° C. using cacodylate buffer (pH 6.0).
molecule,measurement,setting,value
B1,Specific activity,[1]; sample: Crude enzyme solution,5.5 U/mg
same,Specific activity,[1]; sample: HAP,82.9 U/mg
same,Specific activity,[1]; sample: Mono-Q,36.2 U/mg
same,Specific activity,[1]; sample: Q-sepharose,35.6 U/mg
same,reaction product with PA-lactose and CMP-NeuAc (linkage mode of transferred sialic acid),[2],PA-6′-sialyllactose (Neu5Acα2-6Galβ1-4Glc-PA) was detected
same,neuraminidase activity (in words),[3],also has neuraminidase activity
same,pH at which neuraminidase activity is the highest (optimum pH),"[4]; 35° C., FIG. 4-1",6.0
same,temperature at which neuraminidase activity is the highest (optimum temperature),"[4]; cacodylate buffer (pH 6.0), 5° C. up to 50° C., FIG. 4-2",35 °C
